For experiment [1], the target named is human FcγRIIIaV extracellular domain, C-terminal His-tag (human) (UniProt P08637). The experiment can be described thus: SPR 25C; FcgR bound per captured antibody, relative to parent B3.
The target in experiment [2] is human FcγRIIaR extracellular domain, C-terminal His-tag (human) (UniProt P12318). The description is as above.
human FcγRIIaR extracellular domain, C-terminal His-tag (human), sequence (P12318 34-217 H167R): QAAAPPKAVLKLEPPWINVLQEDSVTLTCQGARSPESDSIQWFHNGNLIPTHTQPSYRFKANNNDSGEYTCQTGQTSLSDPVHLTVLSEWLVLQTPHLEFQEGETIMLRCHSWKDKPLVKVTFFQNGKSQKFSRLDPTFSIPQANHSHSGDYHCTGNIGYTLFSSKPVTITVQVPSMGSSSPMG

Take “GpH7-B3 variant V266F/GpL16-k0 (antibody)”: the Binding to human FcgRs (parent B3 = 100) (parent B3 = 100) is 2 in experiment [1] and 8 in experiment [2].
